Laboratory results published in the supplement of paper PMC9170038.

Tested on: MS2 coat protein
Assay: apparent KD of MS2 coat protein; designed switch direction (-1 OFF switch, 1 ON switch): -1; higher = weaker reporter binding
How it was run: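 Stalled E. coli RNA polymerase transcribed designed RNA switches on Illumina chips, which were then titrated with SNAP-549-labelled MS2 coat protein, doubling from 0.7 or 1.5 nM to 3 µM. Steps lasted from 0.8–1.5 h at the lowest concentration to 10–20 min at the highest. The apparent KD is each design's median over clusters of curve-fitted normalised fluorescence.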

[1] = input ligand: microRNA oligo, concentration not stated
[2] = Eterna round: R95, input ligand: microRNA oligo, concentration not stated
[3] = Eterna round: R95, input ligand: FMN 200 uM
[4] = Eterna round: R95, input ligand: none

Sequence	apparent KD of MS2 coat protein (input ligand: FMN 200 uM)	apparent KD of MS2 coat protein (input ligand: none)	apparent KD of MS2 coat protein [1]	also measured
CCAAGAAUAGGAUAUACAACAUGCCAGCUUCUUUACAUCGCACAUGAGGAUCACCCAUGUAGAAGGGUUCUCUG [Exclusion-2-#15] (Eterna round: R97, puzzle: Exclusion 2)	182 nM	209 nM	–	–
AAGGGUGCUUUCAGAACGACAUGAGGAUCACCCAUGUAGACUGAGGAUAUCUACUUCUAAGGACGGGAGAAGGCAGUGUAAUGU [Ex NG3 #71] (Eterna round: R96, puzzle: Exclusion NG 3)	25.5 nM	22.6 nM	17.8 nM	–
ACAAGCUUUUUGUUUGUCUACAUGAGGAUCACCCAUGUGGGUGUCAGUCAUGCUGGCGUGUGGUGUCGUGGCAGCGC [Sensor V1 S1] (Eterna round: R97, puzzle: Sensor, turn-off variant 1)	978 nM	1610 nM	–	–
CGAUAGAUAGGAUAUAUAAUUGGAAUUCACCUUGGGCGGCUACAUGAGGAUCACCCAUGUAGAAGGGUCUUCGA [Eternabot (L1) Solution 80] (Eterna round: R97, puzzle: Exclusion 2)	16.3 nM	18.5 nM	–	–
UUUUUGUAUGAAGGAUAUACUUAACAUGAGGAUCACCCAUGUGGUGUUGUGAGUGAGUGAGUUUAGUAGAAGGUCAAGUAUUUU [JMF's solution 46] (Eterna round: R96, puzzle: Exclusion NG 2)	580 nM	390 nM	606 nM	–
AAUGAGCUAGGAUAUACAUGAGGAUCACCCAUGUAAAAUAGGUCAUGGAGGAACCACUGUAGAAGGAGCAGGGC [Zagereti] (puzzle: Exclusion 3)	–	–	–	apparent KD of MS2 coat protein [2]: 47.1 nM
GGUCGAAAACAGCUCCGCGCUGCCCUCGACCGCUCAUUUACAUGAGGAUCACCCAUGUUUUUUGCUUGUCUUGUUUC [Esrionus] (puzzle: Sensor v3, turn-off variant 2)	–	–	–	apparent KD of MS2 coat protein [3]: 18.3 nM; apparent KD of MS2 coat protein [2]: 80.1 nM; apparent KD of MS2 coat protein [4]: 22.9 nM
UUGUACCGGUGAGGAUAUUUUUGAUAGAACUUUAUGAUAUACAUGAGGAUCACCCAUGUUACUUUAAAGAAGGCAUCGGAUUAU [JL JR Sub091 mod 2] (Eterna round: R96, puzzle: Exclusion NG 2)	–	–	14.3 nM	–
CUUUUGUGAGGAUAUCAGUAGUAAUAAUAUAAAAUUACUACUGAGAAGGCACAUGAGGAUCACCCAUGUUCCUC [salish99_ex3_r3_102] (puzzle: Exclusion 4)	–	–	–	apparent KD of MS2 coat protein [2]: 36.3 nM
CUAGCGAAUGUAGGAUAUCGGACUGUUUCAGUCUGAGAAGGACAUGAGGAUCACCCAUGUAUUGCUACGUGAGUAGCUCGCUAG [JL ENG1 3.92] (Eterna round: R96, puzzle: Exclusion NG 1)	32.4 nM	18 nM	13.7 nM	–
CGGCAUGUAGAAGGAUAUCUGCACGAUUAGUGCAGAGAAGGUCUAACAUGAGGAUCACCCAUGUAGAUCAUUAACCGAUUAAUU [ENG1/8-A1] (Eterna round: R96, puzzle: Exclusion NG 1)	21.9 nM	12 nM	10.7 nM	–
CCCGUGUGAGGAUAUCGUUCACUUGGCGAAAGUCGAGUGGACGAGAAGGUACAUGAGGAUCACCCAUGUGCGGG [-36.1, -35.4 kcal, A 24%] (Eterna round: R97, puzzle: Exclusion 4)	155 nM	134 nM	–	–
UGAGAACUGCGAGGAUAUACAUGAGGAUCACCCAUGUAAUAGUGUGAGGCUUUGCCUCACACAAUGUAGAAGGCGCAGUUCUCU [Mat - Exclusion NG 2 - Mod of JL - D7] (Eterna round: R96, puzzle: Exclusion NG 2)	18.4 nM	11.9 nM	10.1 nM	–
AGUAUAAUGUACGUGCACCACUUACAUGAGGAUCACCCAUGUUAGGAUAUCGAGCCUUUCUGGCUCGAGAAGGGACUCUUCGGG [Eternabot solution 18] (Eterna round: R96, puzzle: Exclusion NG 3)	33.2 nM	29.1 nM	22.9 nM	–
UUAAAUAGUGUGAGGAUAUGCUGGUCCUUGGAUCAGCAGAAGGCACAUGAGGAUCACCCAUGUAGUUAAUUUUA [Mat - Exclusion 4 - JL Mod - D22] (puzzle: Brourd's mod of Exclusion 4)	–	–	–	apparent KD of MS2 coat protein [2]: 37.4 nM
UAUUGGAUAGGAUAUACAUGAGGAUCACCCAUGUGGACGGCUAAGCCUACCGCGCAGAGUAGAAGGGUCGGGUG [Eternabot (L1) Solution 66] (Eterna round: R97, puzzle: Exclusion 3)	161 nM	155 nM	–	–
UUUAAUUUUUUUUUUUUACAAGCUUUUUGCUCGUCUUAUACAUGAGGAUCACCCAUGUAAGUGGGAAAUGAAUUAUC [JMF 99] (puzzle: Sensor v3, turn-off variant 2)	–	–	–	apparent KD of MS2 coat protein [3]: 53.3 nM; apparent KD of MS2 coat protein [2]: 419 nM; apparent KD of MS2 coat protein [4]: 77.9 nM
CAUGUGUAAGGAUAUGACAAUGGUAUCGAAAGAUACCAUUGUCAGAAGGUACAUGAGGAUCACCCAUGUGGAUC [Ex4-3: 18] (puzzle: Exclusion 4)	–	–	–	apparent KD of MS2 coat protein [2]: 199 nM
CUGUACUGAGGAUAUACAUGAGGAUCACCCAUGUGUUCCAGCUAGGAAACUAGCAAAUGUAGAAGGCAGUACAG [Mat - Exclusion 3 - Eli Mod - D50] (Eterna round: R97, puzzle: Exclusion 3)	307 nM	342 nM	–	–
AACGAGUGAGGAUAUCUUGACGGUUUGCAUCAGGCCCUCACAGAGAAGGCACUUGAGGAUCACCCAAGUGACCA [Eredgeinus] (Eterna round: R97, puzzle: Exclusion 4)	16.5 nM	14.2 nM	–	–
CGGGCGCGAGGAUAUACAUGAGGAUCACCCAUGUAACGGCGAGCAAUGUUUGUUGCGUGUAGAAGGUGUGUUUG [-20.1, -18.7 kcal, A 27%] (Eterna round: R97, puzzle: Exclusion 3)	112 nM	155 nM	–	–
UUUUUAUAUGAAGGAUAUACUUAACAUGAGGAUCACCCAUGUGGUGUUGUGAGUGAGUGAGUUUAGUAGAAGGUCAAUUCUUAU [JMF's solution 82] (Eterna round: R96, puzzle: Exclusion NG 2)	516 nM	395 nM	651 nM	–
CCUCAGUAAGGAUAUCAGCUUAGGAGGUUGGUAAUGAGAGCUGAGAAGGUACAUGAGGAUCACCCAUGUUAGUU [JL Zatite mod 7] (puzzle: Exclusion 4)	–	–	–	apparent KD of MS2 coat protein [2]: 30.2 nM
UAUAUAUAGUAAGGAUAUGUAUUAUUUUUAUAAACAGAAGGUACUGACAUGAGGAUCACCCAUGUUUUAGUGUGGGCAUGUAGA [JMF's solution 73] (Eterna round: R96, puzzle: Exclusion NG 1)	–	–	36.9 nM	–
UUAUGAGAGCAGGAUAUCUUAUUUUUUUUUUGUGGAGAAGGGCUCACAUGAGGAUCACCCAUGUGGUCCUAGAU [LRO-Excl6-25-mod of 4.86 by jal] (Eterna round: R97, puzzle: Exclusion 6)	47.4 nM	32.9 nM	–	–
AAUAAGCGAGGAUAUACACCCGGUAACCGGGAACGGGCGAGACAUGAGGAUCACCCAUGUAGAAGGCGCGUCAA [Ralaente] (Eterna round: R97, puzzle: Exclusion 2)	182 nM	161 nM	–	–
